The record followed here is patent publication US20190248900A1 (Y BIOLOGICS, published 2019).

One experiment deals with T1, M9.
T1 construct: also called PD1 mutant M9
Description: scFv-phage ELISA.

For another experiment, the target named is T2, M8.
T2 construct: also called PD1 mutant M8
Description: scFv-phage ELISA. A general note: An ELISA detects its analyte on a solid surface through an enzyme-linked reagent.

The target of a further experiment is T3, M13.
T3 construct: also called PD1 mutant M13
The experiment in a line: scFv-phage ELISA.

The next experiment deals with T4, M3.
T4 construct: also called PD1 mutant M3
Description: scFv-phage ELISA.

The next experiment deals with T5, M1-1.
T5 construct: also called PD1 mutant M1-1
The experiment in a line: scFv-phage ELISA.

A further experiment addresses T6, M5-2.
T6 construct: also called PD1 mutant M5-2
The experiment in a line: scFv-phage ELISA.

Another experiment deals with T7, M2.
T7 construct: also called PD1 mutant M2
The experiment in a line: scFv-phage ELISA.

For the next experiment, the target named is T8, M14.
T8 construct: also called PD1 mutant M14
Description: scFv-phage ELISA.

The target in the next experiment is T9, M1.
T9 construct: also called PD1 mutant M1
Description: scFv-phage ELISA.

The next experiment concerns the target T10, ITGA6-Fc.
T10 construct: Fc fusion
T10 sequence (P23229 whole entry, species assumed, looked up): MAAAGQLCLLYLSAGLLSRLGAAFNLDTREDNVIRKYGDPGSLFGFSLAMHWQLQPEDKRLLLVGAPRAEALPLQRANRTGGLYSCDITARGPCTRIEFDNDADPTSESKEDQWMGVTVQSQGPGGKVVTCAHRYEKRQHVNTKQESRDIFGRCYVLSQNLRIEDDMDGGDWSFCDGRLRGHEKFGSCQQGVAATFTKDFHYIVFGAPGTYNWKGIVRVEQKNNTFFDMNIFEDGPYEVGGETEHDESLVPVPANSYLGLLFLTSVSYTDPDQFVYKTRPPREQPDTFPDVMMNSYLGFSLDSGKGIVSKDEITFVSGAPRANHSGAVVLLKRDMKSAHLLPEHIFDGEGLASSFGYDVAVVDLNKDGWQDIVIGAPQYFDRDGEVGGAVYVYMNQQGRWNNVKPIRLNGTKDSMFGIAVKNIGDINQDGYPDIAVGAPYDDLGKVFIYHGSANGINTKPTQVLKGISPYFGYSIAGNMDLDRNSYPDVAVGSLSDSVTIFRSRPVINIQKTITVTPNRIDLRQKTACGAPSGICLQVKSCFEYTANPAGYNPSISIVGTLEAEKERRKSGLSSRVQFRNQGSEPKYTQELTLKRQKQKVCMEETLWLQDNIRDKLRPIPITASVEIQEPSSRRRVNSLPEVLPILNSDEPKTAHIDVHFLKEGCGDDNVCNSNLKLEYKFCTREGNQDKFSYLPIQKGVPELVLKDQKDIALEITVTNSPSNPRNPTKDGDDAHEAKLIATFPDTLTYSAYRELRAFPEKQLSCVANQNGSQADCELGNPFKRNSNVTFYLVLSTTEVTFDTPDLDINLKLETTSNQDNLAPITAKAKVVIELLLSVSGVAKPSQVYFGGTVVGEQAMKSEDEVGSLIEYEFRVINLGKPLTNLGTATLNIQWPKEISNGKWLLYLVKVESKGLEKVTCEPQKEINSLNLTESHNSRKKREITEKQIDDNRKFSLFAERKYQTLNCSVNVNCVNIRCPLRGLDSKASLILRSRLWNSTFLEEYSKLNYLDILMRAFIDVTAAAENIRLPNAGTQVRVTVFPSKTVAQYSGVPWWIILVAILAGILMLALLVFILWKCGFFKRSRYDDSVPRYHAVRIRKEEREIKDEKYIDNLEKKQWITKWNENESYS
The experiment in a line: scFv-phage ELISA.

The next experiment addresses T11, M7.
T11 construct: also called PD1 mutant M7
Description: scFv-phage ELISA.

The target of the next experiment is T12, M5-1.
T12 construct: also called PD1 mutant M5-1
Description: scFv-phage ELISA.

The target in the next experiment is T13, M1-2.
T13 construct: also called PD1 mutant M1-2
Description: scFv-phage ELISA.

The target in a further experiment is T14, M11.
T14 construct: also called PD1 mutant M11
Description: scFv-phage ELISA.

The next experiment has as its target T15, M2-2.
T15 construct: also called PD1 mutant M2-2
Description: scFv-phage ELISA.

The target of another experiment is T16, M6.
T16 construct: also called PD1 mutant M6
The experiment in a line: scFv-phage ELISA.

Experiment [1] concerns the target T17, antigen PD1 (coated, construct not stated) (UniProt Q15116 25-170, limits assumed).
T17 construct: also called PD1 antigen; PDCD1
The experiment in a line: scFv-phage ELISA.

For a further experiment, the target named is T18, M7-2.
T18 construct: also called PD1 mutant M7-2
The experiment in a line: scFv-phage ELISA.

The target in another experiment is T19, M5.
T19 construct: also called PD1 mutant M5
Description: scFv-phage ELISA.

Another experiment has as its target T20, M4.
T20 construct: also called PD1 mutant M4
The experiment in a line: scFv-phage ELISA.

Another experiment deals with T21, M10.
T21 construct: also called PD1 mutant M10
The experiment in a line: scFv-phage ELISA.

For experiment [2], the target named is T22, human PD-1 (NM_005018.2) over-expressed on cells (human, UniProt Q15116 25-288).
T22 construct: whole, on cells; also called human PD-1 over-expressed on the cell surface; Jurkat cell line highly expressing human PD-1
Description: flow cytometry, 18 nM, over IgG. (In general: A flow cytometer gives signals particle by particle.)

A further experiment addresses T23, PD1-hFc (human, UniProt Q15116 25-170).
T23 construct: extracellular domain; also called PD1-hFc protein; Human PD-1-Fc (S1420, Y-Biologics)
The experiment in a line: SPR ProteOn XPR36, PD1-hFc immobilised, antibody as analyte.

T17 sequence (Q15116 25-170 limits assumed): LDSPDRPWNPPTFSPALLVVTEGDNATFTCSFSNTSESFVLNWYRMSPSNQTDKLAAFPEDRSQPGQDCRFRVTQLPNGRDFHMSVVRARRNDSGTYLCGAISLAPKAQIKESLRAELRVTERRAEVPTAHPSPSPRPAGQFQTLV
T23 sequence (Q15116 other isoform, or with tags, fused parts or gaps limits assumed): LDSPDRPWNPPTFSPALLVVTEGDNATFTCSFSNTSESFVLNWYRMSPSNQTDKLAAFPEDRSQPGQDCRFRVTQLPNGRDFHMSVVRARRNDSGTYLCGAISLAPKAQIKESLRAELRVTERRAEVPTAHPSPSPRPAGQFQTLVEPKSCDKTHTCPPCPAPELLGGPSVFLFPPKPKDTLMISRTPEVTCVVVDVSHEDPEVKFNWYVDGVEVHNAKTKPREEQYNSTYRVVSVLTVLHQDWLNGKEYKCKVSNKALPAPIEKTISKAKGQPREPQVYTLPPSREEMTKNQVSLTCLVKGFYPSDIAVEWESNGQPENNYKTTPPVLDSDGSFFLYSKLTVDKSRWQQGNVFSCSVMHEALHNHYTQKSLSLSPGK
T22 sequence (Q15116 25-288): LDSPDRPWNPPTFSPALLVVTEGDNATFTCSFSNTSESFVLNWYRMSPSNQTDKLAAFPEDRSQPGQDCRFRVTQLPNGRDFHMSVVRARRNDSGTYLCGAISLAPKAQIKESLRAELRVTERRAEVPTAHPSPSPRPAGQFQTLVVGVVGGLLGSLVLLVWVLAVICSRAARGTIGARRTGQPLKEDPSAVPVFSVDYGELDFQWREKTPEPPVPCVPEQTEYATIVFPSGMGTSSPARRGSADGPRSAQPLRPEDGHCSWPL

B1: PD1-41C9 (antibody, V domains shown)
VH: QMQLVESGGGVVQPGRSLRLSCAASGFTFSSYAMHWVRQAPGKGLEWVAVISYDGSNKYYADSVKGRFTISRDNSKNTLYLQMNRLRSEDTAVYYCTTTTFDSWGQGTLITVSS
VL: DIVMTQTPLSLPVTPGEAASISCRSSQSLLDSEDGNTYLDWYLQKPGQSPQLLIYTLSHRASGVPDRFSGSGSGTDFTLKISRVAAEDVGLYYCLQRMGFPYTFGQGTKLDIK
notes: scFv-phage in the screening ELISA; whole IgG in the other assays
On to B1, for which the OD490 is 3.3 in the experiment with M9; 2.5 with M8; 3.6 with M13; 2.3 in the experiment with M3; 3.1 in the experiment with M1-1; 3.6 with M5-2. For the same molecule, the OD490 with M2 amounted to 0.8; with M14 it was 3.5; in the experiment with M1, 3.2; in the experiment with ITGA6-Fc it was 0.5; with M7, 0.8; in the experiment with M5-1 it was 2.8. Further, the OD490 is 3.2 with M1-2; 0.9 with M11; 3.2 with M2-2; 3.6 in the experiment with M6; 3.2 in [1]; 3 with M7-2. Moreover, the OD490 with M5 was found to be 2.3; with M4 it was 3.2; in the experiment with M10 it was 3.4.

B2: PD1-49A2 (antibody, V domains shown)
VH: QVQLVESGGGVVQPGRSLRLSCAASGFTFSSYAMHWVRQAPGKGLEWVAVISYDGSNKYYADSVKGRFTISRDNPKNTLYLQMNSLRAEDTAVYYCTTTTFDSWGRGTLVTVSS
VL: DIVMTQSPLSLPVTPGEPASISCRSSQSLFDSDDGNTYLDWYLQKPGQSPQLLIYTLSHRASGVPDRFSGSGSGTDFTLKISRVEAEDVGIYYCLQRMGFPYTFGQGTKVEIK
notes: scFv-phage in the screening ELISA; whole IgG in the other assays; also called Parent 49A2
For the molecule B2, the OD490 is 3.7 with M9; 3 with M8; 3.9 in the experiment with M13; 3.4 in the experiment with M3; 3.4 in the experiment with M1-1; 3.8 with M5-2. Also, the OD490 with M2 amounted to 0.3; with M14 it was 3.9; with M1, 3; with ITGA6-Fc, 0.2; in the experiment with M7 it was 0.4; with M5-1, 0.7. For the same molecule, the OD490 with M1-2 worked out at 3.8; with M11, 0.4; in the experiment with M2-2, 3.8; with M6 it was 3.9; in experiment [1] it was 3.6; in the experiment with M7-2 it was 2.2. For the same molecule, the OD490 in the experiment with M5 was determined as 1.2; in the experiment with M4, 3.9; in the experiment with M10, 2.6. The Fold in experiment [2] is 222. Binding with PD1-hFc was put at a Kd of 0.237 nM. Also, the koff (as a rule, the first-order rate constant of dissociation) with PD1-hFc turned out to be 9.37e-05 s⁻¹. For the same molecule, the kon (commonly a measure of how fast the partners come together) with PD1-hFc was found to be 395000 M⁻¹ s⁻¹.

B3: PD1-45D6 (antibody, V domains shown)
VH: QVQLVESGGGVVQPGRSLRLSCAASGFTFSSYAMHWVRQVPGKGLEWVAVISYDGNDKYYADSVKGRFTISRDNSKNTLYLQMNSLRAEDTAVYYCVPTTFEYWGQGSQVTVSS
VL: DIVMTQTPLSLPVTPGEAASISCRSSQSLLDSDDGKTYLDWYLQKPGQSPQLLIYTLSYRASGVPDRFSGSGSGTEFNLRISRVEAEDVGIYYCMQRVEFPFTFGQGTKLDIK
notes: as for B1
With B3, the OD490 was determined as 3.8 with M9; 3.8 with M8; 4 with M13; 3.8 with M3; 3.8 with M1-1; 3.9 in the experiment with M5-2. The OD490 with M2 stood at 0.4; with M14, 3.9; with M1 it was 4; with ITGA6-Fc it was 0.5; with M7, 0.5; with M5-1 it was 3.8. The OD490 with M1-2 is 3.9; with M11 it was 0.7; with M2-2, 3.8; in the experiment with M6 it was 3.9; in experiment [1], 3.8; with M7-2, 4. Further, the OD490 turned out to be 3.6 with M5, 3.9 with M4 and 3.9 with M10. This molecule returned a Fold in [2] of 286. For the same molecule, in the experiment with PD1-hFc, the on-rate constant (kon) amounted to 270000 M⁻¹ s⁻¹.

B4: PD1-52E8 (antibody, V domains shown)
VH: QVQLVQSGGNLVQPGRSLRLSCAASGFTFDDYAMHWVRQAPGKGLEWVSGISWNSGTPGYADSVQGRFTISRDNAKNSLYLQMNSLRAEDTAVYYCARGHNYLDSSYYDYWGQGTLVTVSS
VL: SYELTQPLSLSVAPGQTARITCSGDALSKEYSYWYQQKPGQAPVLVMYKDSERPSGIPERFSGSSSGTTVTLTISGVQAEDEADYYCQSVDSSDTSVVFGGGTKLTVL
notes: as for B1
As to B4, the OD490 in the experiment with M9 worked out at 2.4; with M8, 0.6; in the experiment with M13, 3.9; in the experiment with M3, 1.5; with M1-1, 1.5; in the experiment with M5-2, 3.5. Also, the OD490 was found to be 0.2 in the experiment with M2; 2.6 with M14; 1.4 with M1; 0.1 with ITGA6-Fc; 1 in the experiment with M7; 0.3 with M5-1. In addition, the OD490 with M1-2 was determined as 3.6; with M11, 0.2; with M2-2, 3.4; with M6 it was 3.4; in experiment [1], 0.4; with M7-2, 3.9. The OD490 with M5 was 0.5; with M4, 3.7; with M10, 1.
